Assay [1] concerns the target WT SARS-CoV-2 spike protein, plate-coated (MSD V-Plex) (SARS-CoV-2) (UniProt P0DTC2). As to the kind of experiment: MSD competition vs labelled ACE2.
The target of assay [2] is full length wild type SARS-CoV-2 spike glycoprotein on pseudotyped lentivirus (SARS-CoV-2) (UniProt P0DTC2). The assay is described as follows: cell-based or functional assay.
The target of assay [3] is SARS-CoV-2 spike RBD-His (R&D Systems, cat #10500-CV) (SARS-CoV-2) (UniProt P0DTC2). As to the kind of experiment: SPR. Background: Surface plasmon resonance follows binding to a sensor surface in real time, without labels.
Assay [4] shares this target. The assay is described as follows: SPR, 1:1 model.

The source of these data is patent US20240327815A1.

Usually IC50 stands for the concentration at which inhibition is half-maximal. Higher therefore signals a need for much substance. As to Bamlanivimab + Etesevimab, in assay [1], the IC50 came out at 0.07 nM.

For the substance REGEN-COV, in assay [2], the Pseudovirus Neutralization (IC50, nM) turned out to be 0.09 nM and the Pseudovirus neutralization IC50 came to 0.09 nM. The substance also gave an IC50 in assay [1] of 0.07 nM.

As usually defined, the Kd is the equilibrium constant for the complex coming apart. Lower therefore signals higher affinity. In the case of REGN10933 (Casirivimab) (antibody), the Kd in assay [3] and in assay [4] was 0.0708 nM in each case.

As for REGN10987 (Imdevimab) (antibody), the Kd in assay [3] and in assay [4] was 0.0869 nM throughout.

In turn, Sotrovimab (antibody) returned a Pseudovirus Neutralization (IC50, nM) in assay [2] of 0.11 nM.
